According to US20110229922:

Tests used:
[1] = tested on: T1, APP SW FRET peptide SEVNLDAEFR
T1 sequence: SEVNLDAEFR

[2] = tested on: T2, APP WT FRET peptide SEVKMDAEFR
T2 sequence: SEVKMDAEFR

[3] = tested on: T3, Amylin FRET peptide GSNTYGKRNA
T3 sequence: GSNTYGKRNA

[4] = tested on: MR121 peptide C LEFLKI W
[5] = tested on: T4, MR121 peptide C QELEFLKI W
T4 sequence: QELEFLKI

[6] = tested on: MR121 peptide C QTLEF W
[7] = tested on: MR121 peptide C QTLEFL W
[8] = tested on: MR121 peptide C QTLEFLK W
[9] = tested on: T5, MR121 peptide C QTLEFLKI W
T5 sequence: QTLEFLKI

[10] = tested on: T6, MR121 peptide C QTLEFLKIP W
T6 sequence: QTLEFLKIP

[11] = tested on: T7, MR121 peptide C QTLEFLKIPS W
T7 sequence: QTLEFLKIPS

[12] = tested on: MR121 peptide C TLEFLKI W
[13] = tested on: T8, TMEM 27 A FRET peptide RINNAFFLND
T8 sequence: RINNAFFLND

[14] = tested on: dabsyl-NSLEFLGIQP-lucifer yellow (ACE2 FRET peptide)
[15] = tested on: dabsyl-QTLEFLKIPS-LucY (TMEM27 FRET peptide)
[16] = target: dabsyl-…-LucY (TMEM27 FRET peptide)

B1: BACE2 enzyme ectodomain (enzyme)
chain: AAPELAPAPFTLPLRVAAATNRVVAPTPGPGTPAERHADGLALALEPALASPAGAANFLAMVDNLQGDSGRGYYLEMLIGTPPQKLQILVDTGSSNFAVAGTPHSYIDTYFDTERSSTYRSKGFDVTVKYTQGSWTGFVGEDLVTIPKGFNTSFLVNIATIFESENFFLPGIKWNGILGLAYATLAKPSSSLETFFDSLVTQANIPNVFSMQMCGAGLPVAGSGTNGGSLVLGGIEPSLYKGDIWYTPIKEEWYYQIEILKLEIGGQSLNLDCREYNADKAIVDSGTTLLRLPQKVFDAVVEAVARASLIPEFSDGFWTGSQLACWTNSETPWSYFPKISIYLRDENSSRSFRITILPQLYIQPMMGAGLNYECYRFGISPSTNALVIGATVMEGFYVIFDRAQKRVGFAASPCAEIAGAAVSEISGPFSTEDVASNCVPAQSLSE
modifications: N-terminal Met
With B1 the “FRET peptide cleavage efficiency” value [1] was “cleaved less efficiently”, the “FRET peptide cleavage efficiency” value [2] was “cleaved less efficiently” and the “FRET peptide cleavage efficiency” value [3] was “cleaved less efficiently”. The Relative activity [4] was 24, the Relative activity [5] was 100 and the Relative activity [6] was 21. It also gave a Relative activity [7] of 32, a Relative activity [8] of 62 and a Relative activity [9] of 96. For the same protein, the Relative activity [10] was 75, the Relative activity [11] was 91 and the Relative activity [12] was 28. For the same protein, the “FRET peptide cleavage efficiency” value [13] was “cleaved less efficiently”, the “FRET peptide cleavage efficiency” value [14] was “cleaved by BACE2 with an efficiency greater than that of the TMEM27 substrate” and the “FRET peptide cleavage activity” value [15] was “BACE2 had a high activity against this sequence”.

B2: BACE1 (protein)
chain: TQHGIRLPLRSGLGGAPLGLRLPRETDEEPEEPGRRGSFVEMVDNLRGKSGQGYYVEMTVGSPPQTLNILVDTGSSNFAVGAAPHPFLHRYYQRQLSSTYRDLRKGVYVPYTQGKWEGELGTDLVSIPHGPNVTVRANIAAITESDKFFINGSNWEGILGLAYAEIARPDDSLEPFFDSLVKQTHVPNLFSLQLCGAGFPLNQSEVLASVGGSMIIGGIDHSLYTGSLWYTPIRREWYYEVIIVRVEINGQDLKMDCKEYNYDKSIVDSGTTNLRLPKKVFEAAVKSIKAASSTEKFPDGFWLGEQLVCWQAGTTPWNIFPVISLYLMGEVTNQSFRITILPQQYLRPVEDVATSQDDCYKFAISQSSTGTVMGAVIMEGFYVVFDRARKRIGFAVSACHVHDEFRTAAVEGPFVTLDMEDCGYNIPQTDESTLMTIAY
In the case of B2, the “FRET peptide cleavage activity” value [16] is reported as “BACE1 had insignificant activity against this peptide”.
